Here are results for 16 molecules from patent US20100004431A1 (Xencor, published 2010).

Read-outs that look alike come from different tables or passages of the source. A value given as a limit tells only on which side of the number the result lay.

In general, Kd refers to the equilibrium constant for the complex coming apart. Lower therefore signals higher affinity. As a reminder, the koff is the rate constant with which the complex falls apart. A low value points to a long-lived complex. Usually kon stands for the rate constant with which the complex forms. A high value points to fast association.

One experiment addresses VEGF (UniProt P15692-4 27-191, limits assumed). Briefly: Biacore (SPR); Fab injected over immobilized VEGF. For orientation: Surface plasmon resonance follows binding to a sensor surface in real time, without labels.
Experiment [1] concerns the target T1, CD25 (R&D systems cat. #223-2A/CF) (UniProt P01589 22-213, limits assumed).
T1 construct: Bought soluble protein
T1 sequence (looked up): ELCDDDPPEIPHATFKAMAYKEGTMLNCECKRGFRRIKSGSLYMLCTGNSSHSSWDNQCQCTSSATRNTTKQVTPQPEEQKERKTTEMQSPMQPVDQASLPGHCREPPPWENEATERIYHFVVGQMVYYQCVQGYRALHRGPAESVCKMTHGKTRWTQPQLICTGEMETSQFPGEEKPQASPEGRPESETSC
Nature of the experiment: SPR (Biacore).
Procedure: (§1) Binding was measured by injection of two-fold serial dilutions of CD25 (0 nM to 50 nM; R&D systems) in buffer at 25° C. with a flow rate of 25-30 μL/min for 2 min followed by a dissociation phase of 4-5 min. Association rates (kₒₙ) and dissociation rates (koff) were calculated using a simple one-to-one Langmuir binding model (BIAcore Evaluation Software version 3.2). The equilibrium dissociation constant (Kd) was calculated as the ratio of koff/kₒₙ).

In experiment [2] the target is T1, CD25 (R&D systems cat. #223-2A/CF). Nature of the experiment: Biacore (SPR); antibody captured on Protein A, CD25 injected.
Procedure: as §1
The target is the same in experiment [3]. The description is as above. This is another data set of the same source.
Procedure: as §1
Experiment [4] deals with T2, TNFα (UniProt P01375 77-233). Nature of the experiment: SPR (Biacore), TNFα on CM5 chip, Fab injected; mean of two runs ± SD.
T2 sequence (P01375 77-233 limits assumed): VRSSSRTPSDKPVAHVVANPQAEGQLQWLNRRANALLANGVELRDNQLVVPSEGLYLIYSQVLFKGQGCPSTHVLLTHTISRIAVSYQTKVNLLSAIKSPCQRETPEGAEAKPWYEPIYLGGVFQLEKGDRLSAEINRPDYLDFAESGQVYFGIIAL
Procedure: (§2) For kinetic analysis of anti-TNFα antibodies, TNFα was coupled to an activated CM5 biosensor chip using standard NHS-EDC chemistry by injecting 200 nM TNFα at a flow rate of 2 μL/min for 10 min. […] For subsequent cycles, the chip was regenerated using pH4.0 acetate buffer. Association rates (kₒₙ) and dissociation rates (koff) were calculated using a simple one-to-one Langmuir binding model (BIAcore Evaluation Software version 3.2). The equilibrium dissociation constant (Kd) was calculated as the ratio of koff/kₒₙ.
Experiment [5] has as its target T2, TNFα. Briefly: SPR (Biacore), TNFα on CM5 chip, Fab injected.
Procedure: as §2

VEGF, sequence (P15692 other isoform, or with tags, fused parts or gaps limits assumed): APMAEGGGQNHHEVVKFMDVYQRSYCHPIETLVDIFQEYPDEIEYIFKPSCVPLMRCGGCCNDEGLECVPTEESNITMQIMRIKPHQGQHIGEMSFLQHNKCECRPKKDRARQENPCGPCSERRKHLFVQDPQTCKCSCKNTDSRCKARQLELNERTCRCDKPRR
Procedure for VEGF: For kinetic analysis of anti-VEGF antibodies, VEGF was coupled to an activated CM5 biosensor chip using standard NHS-EDC chemistry by injecting 200 nM VEGF at a flow rate of 2 μL/min for 10 min. […] Association rates (kₒₙ) and dissociation rates (koff) were calculated using a simple one-to-one Langmuir binding model (BIAcore Evaluation Software version 3.2). The equilibrium dissociation constant (Kd) was calculated as the ratio of koff/kₒₙ.

B1: anti-VEGF H0L0 (Fab, V domains shown)
VH: EIQLVQSGPELKQPGETVRISCKASGYTFTNYGMNWVKQAPGKGLKWMGWINTYTGEPTYAADFKRRFTFSLETSASTAYLQISNLKNDDTATYFCAKYPHYYGSSHWYFDVWGAGTTVTVSS
VL: DIQMTQTTSSLSASLGDRVIISCSASQDISNYLNWYQQKPDGTVKVLIYFTSSLHSGVPSRFSGSGSGTDYSLTISNLEPEDIATYYCQQYSTVPWTFGGGTKLEIK
notes: also called anti-VEGF H0L0 (murine Fv); murine A4.6.1 Fv
In the experiment with VEGF, B1 showed a Kd of 1.4 nM, a koff of 0.00017 s⁻¹ and a kon of 134000 M⁻¹ s⁻¹.

B2: anti-CD25 H1.12L1 (antibody, IgG1, V domains shown)
VH: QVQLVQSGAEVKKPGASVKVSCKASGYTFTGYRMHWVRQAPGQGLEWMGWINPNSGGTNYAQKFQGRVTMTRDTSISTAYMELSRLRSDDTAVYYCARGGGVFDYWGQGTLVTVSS
VL: QIVLTQSPATLSLSPGERATLSCRASSSISYMHWFQQKPGQSPQLLIYTTSNLASGVPARFSGSGSGTDYTLTISSLQPEDFAVYYCHQRSTYPLTFGSGTKLEIK
notes: IgG1 format
On to B2, for which, in experiment [1], the “fold tighter binding than anti-CD25 H1L1” value is 8 fold. In addition, in experiment [2], the “Fold change in Kd vs. H0L0” value came to 2.3 fold, binding was put at a Kd of 0.11 nM, the off-rate (koff) came out at 0.00012 s⁻¹ and the kon came out at 1.1e+06 M⁻¹ s⁻¹.

B3: anti-CD25 H1L1.7 (antibody, V domains shown)
VH: QVQLVQSGAEVKKPGASVKVSCKASGYTFTSYRMHWVRQAPGQGLEWMGYINPSTGYTEYNQKFQGRVTITADKSISTAYMELSRLRSDDTAVYYCARGGGVFDYWGQGTLVTVSS
VL: QIVLTQSPATLSLSPGERATLSCRASSSISYMHWFQQKPGQSPQLLIYTTSNLASGVPARFSGSGSGTDYTLTISSLEPEDFAVYYCHQRSTYPLTFGSGTKLEIK
notes: Single variant in the anti-CD25 H1L1 background; also called VL Q79E single variant
With B3, in experiment [3], the “Fold change in Kd vs. H1L1” value was 1.2 fold, the Kd was 0.28 nM, the koff amounted to 0.00054 s⁻¹ and the kon amounted to 2e+06 M⁻¹ s⁻¹.

B4: anti-CD25 H1.23L1 (antibody, IgG1, V domains shown)
VH: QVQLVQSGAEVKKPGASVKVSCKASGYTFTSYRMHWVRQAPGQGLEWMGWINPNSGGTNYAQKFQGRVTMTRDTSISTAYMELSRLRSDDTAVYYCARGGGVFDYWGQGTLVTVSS
VL: QIVLTQSPATLSLSPGERATLSCRASSSISYMHWFQQKPGQSPQLLIYTTSNLASGVPARFSGSGSGTDYTLTISSLQPEDFAVYYCHQRSTYPLTFGSGTKLEIK
notes: IgG1 format
As to B4, the “fold tighter binding than anti-CD25 H1L1” value in experiment [1] turned out to be 4.4 fold. Moreover, in experiment [2], the “Fold change in Kd vs. H0L0” value is 1.3 fold, binding was put at a Kd of 0.2 nM, the koff turned out to be 0.00019 s⁻¹ and the kon was 950000 M⁻¹ s⁻¹.

B5: anti-CD25 H1.14L1 (antibody, IgG1, V domains shown)
VH: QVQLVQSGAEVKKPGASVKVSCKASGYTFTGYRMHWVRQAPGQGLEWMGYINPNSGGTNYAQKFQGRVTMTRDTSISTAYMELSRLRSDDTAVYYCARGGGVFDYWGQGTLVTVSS
VL: QIVLTQSPATLSLSPGERATLSCRASSSISYMHWFQQKPGQSPQLLIYTTSNLASGVPARFSGSGSGTDYTLTISSLQPEDFAVYYCHQRSTYPLTFGSGTKLEIK
notes: IgG1 format
In the case of B5, the “fold tighter binding than anti-CD25 H1L1” value in experiment [1] came to 2.4 fold. Besides, in experiment [2], the “Fold change in Kd vs. H0L0” value was -1.4 fold, binding was put at a Kd of 0.36 nM, the koff was found to be 0.00028 s⁻¹ and the kon is 770000 M⁻¹ s⁻¹.

B6: anti-CD25 H1.22L1 (antibody, IgG1, V domains shown)
VH: QVQLVQSGAEVKKPGASVKVSCKASGYTFTSYRMHWVRQAPGQGLEWMGWINPNSGGTNYAQKFQGRVTITRDTSISTAYMELSRLRSDDTAVYYCARGGGVFDYWGQGTLVTVSS
VL: QIVLTQSPATLSLSPGERATLSCRASSSISYMHWFQQKPGQSPQLLIYTTSNLASGVPARFSGSGSGTDYTLTISSLQPEDFAVYYCHQRSTYPLTFGSGTKLEIK
notes: IgG1 format
With B6, the “fold tighter binding than anti-CD25 H1L1” value in experiment [1] is 4.9 fold. Also, in experiment [2], the “Fold change in Kd vs. H0L0” value was 1.5 fold, the Kd was found to be 0.18 nM, the koff was 0.00017 s⁻¹ and the kon was 980000 M⁻¹ s⁻¹.

B7: anti-CD25 H1L1.14 (antibody, V domains shown)
VH: QVQLVQSGAEVKKPGASVKVSCKASGYTFTSYRMHWVRQAPGQGLEWMGYINPSTGYTEYNQKFQGRVTITADKSISTAYMELSRLRSDDTAVYYCARGGGVFDYWGQGTLVTVSS
VL: QIVLTQSPATLSLSPGERATLSCRASSSISYMHWFQQKPGQSPQLLIYTTSNLASGVPARFSGSGSGTDFTLTISSLQPEDFAVYYCHQRSTYPLTFGSGTKLEIK
notes: Single variant in the anti-CD25 H1L1 background; also called VL Y71F single variant
For B7, in experiment [3], the “Fold change in Kd vs. H1L1” value came to 1.2 fold, binding was put at a Kd of 0.27 nM, the koff was 0.00048 s⁻¹ and the kon was found to be 1.8e+06 M⁻¹ s⁻¹.

B8: anti-CD25 H1L1.13 (antibody, V domains shown)
VH: QVQLVQSGAEVKKPGASVKVSCKASGYTFTSYRMHWVRQAPGQGLEWMGYINPSTGYTEYNQKFQGRVTITADKSISTAYMELSRLRSDDTAVYYCARGGGVFDYWGQGTLVTVSS
VL: QIVLTQSPATLSLSPGERATLSCRASSSISYMHWFQQKPGQSPQLLIYTTSNLASGIPARFSGSGSGTDYTLTISSLQPEDFAVYYCHQRSTYPLTFGSGTKLEIK
notes: Single variant in the anti-CD25 H1L1 background; also called VL V58I single variant
As for B8, in experiment [3], the “Fold change in Kd vs. H1L1” value is -1.1 fold, the dissociation constant Kd was determined as 0.35 nM, the dissociation rate constant (koff) came to 0.0006 s⁻¹ and the kon is 1.7e+06 M⁻¹ s⁻¹.

B9: anti-CD25 H1L1.6 (antibody, V domains shown)
VH: QVQLVQSGAEVKKPGASVKVSCKASGYTFTSYRMHWVRQAPGQGLEWMGYINPSTGYTEYNQKFQGRVTITADKSISTAYMELSRLRSDDTAVYYCARGGGVFDYWGQGTLVTVSS
VL: QIVLTQSPATLSLSPGERATLSCRASSSISYMHWFQQKPGQSPRLLIYTTSNLASGVPARFSGSGSGTDYTLTISSLQPEDFAVYYCHQRSTYPLTFGSGTKLEIK
notes: Single variant in the anti-CD25 H1L1 background; also called VL Q45R single variant
Regarding B9, in experiment [3], the “Fold change in Kd vs. H1L1” value is 1 fold, the Kd was found to be 0.32 nM, the koff was 0.00057 s⁻¹ and the kon was 1.8e+06 M⁻¹ s⁻¹.

B10: anti-CD25 H1L1.16 (antibody, V domains shown)
VH: QVQLVQSGAEVKKPGASVKVSCKASGYTFTSYRMHWVRQAPGQGLEWMGYINPSTGYTEYNQKFQGRVTITADKSISTAYMELSRLRSDDTAVYYCARGGGVFDYWGQGTLVTVSS
VL: QIVLTQSPATLSLSPGERATLSCRASSSISYMHWYQQKPGQSPQLLIYTTSNLASGVPARFSGSGSGTDYTLTISSLQPEDFAVYYCHQRSTYPLTFGSGTKLEIK
notes: Single variant in the anti-CD25 H1L1 background; also called VL F36Y single variant
In the case of B10, in experiment [3], the “Fold change in Kd vs. H1L1” value was 1.2 fold, the Kd worked out at 0.26 nM, the koff turned out to be 0.00042 s⁻¹ and the kon is 1.6e+06 M⁻¹ s⁻¹.

B11: anti-CD25 H1L1.9 (antibody, V domains shown)
VH: QVQLVQSGAEVKKPGASVKVSCKASGYTFTSYRMHWVRQAPGQGLEWMGYINPSTGYTEYNQKFQGRVTITADKSISTAYMELSRLRSDDTAVYYCARGGGVFDYWGQGTLVTVSS
VL: QIVLTQSPATLSLSPGERATLSCRASSSISYMHWFQQKPGQAPQLLIYTTSNLASGVPARFSGSGSGTDYTLTISSLQPEDFAVYYCHQRSTYPLTFGSGTKLEIK
notes: Single variant in the anti-CD25 H1L1 background; also called VL S43A single variant
For B11, in experiment [3], the “Fold change in Kd vs. H1L1” value was found to be 1 fold, the Kd was determined as 0.31 nM, the off-rate (koff) came out at 0.00058 s⁻¹ and the association rate constant (kon) stood at 1.9e+06 M⁻¹ s⁻¹.

B12: Anti-TNFα H1.101L1.33 (Fab, V domains shown)
VH: EVQLVESGGGLVQPGGSLKLSCAASGFIFSNHWMNWVRQASGKGLEWVGEIRSKAINYATHYAESVKGRFTISRDDSKSTAYLQMNSLKTEDTAVYYCSRNYYGSTYDYWGQGTLVTVSS
VL: EIVLTQSPDFQSVTPKEKVTITCRASQFIGSSLHWYQQKPDQSPKLLIKYASESFSGVPSRFSGSGSGTDFTLTINSLEAEDAATYYCQQSHSWPFTFGSGTKLEIK
notes: Fab format
In the experiment with TNFα [4], B12 yielded a Kd of 3.9 nM, a koff of 0.000874 s⁻¹ and a kon of 223000 M⁻¹ s⁻¹. For the same molecule, the “fold difference in affinity against the chimeric antibody anti-TNFα H0L0” value with TNFα [5] was at most 3 fold.

B13: Anti-TNFα H1L1 (Fab, V domains shown)
VH: EVQLVESGGGLVQPGGSLKLSCAASGFIFSNHWMNWVRQASGKGLEWVGEIRSKSINSATHYAESVKGRFTISRDDSKSIVYLQMNSLKTEDTAVYYCSRNYYGSTYDYWGQGTLVTVSS
VL: DILLTQSPDFQSVTPKEKVTITCRASQFVGSSIHWYQQKPDQSPKLLIKYASESMSGIPSRFSGSGSGTDFTLTINSLEAEDAATYYCQQSHSWPFTFGSGTKLEIK
notes: Fab format, purified by Ni-NTA chromatography; also called framework optimized anti-TNFα H1L1
In the experiment with TNFα [4], B13 yielded a Kd of 1.9 nM, a koff of 0.00116 s⁻¹ and a kon of 605000 M⁻¹ s⁻¹.

B14: Anti-TNFα H1.45L1.33 (Fab, V domains shown)
VH: EVQLVESGGGLVQPGGSLKLSCAASGFIFSNHWMNWVRQASGKGLEWVGEIRSKAINYATHYAESVKGRFTISRDDSKSIVYLQMNSLKTEDTAVYYCSRNYYGSTYDYWGQGTLVTVSS
VL: EIVLTQSPDFQSVTPKEKVTITCRASQFIGSSLHWYQQKPDQSPKLLIKYASESFSGVPSRFSGSGSGTDFTLTINSLEAEDAATYYCQQSHSWPFTFGSGTKLEIK
notes: Fab format
In the experiment with TNFα [4], B14 returned a Kd of 1.8 nM, a koff of 0.00087 s⁻¹ and a kon of 489000 M⁻¹ s⁻¹. In the experiment with TNFα [5], the “fold difference in affinity against the chimeric antibody anti-TNFα H0L0” value is at most 3 fold.

B15: anti-CD25 H1.12L1.48 (antibody, IgG1, V domains shown)
VH: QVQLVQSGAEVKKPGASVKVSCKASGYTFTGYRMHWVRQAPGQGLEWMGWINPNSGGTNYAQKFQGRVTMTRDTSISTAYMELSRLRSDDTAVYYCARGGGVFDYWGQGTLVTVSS
VL: EIVLTQSPATLSLSPGERATLSCRASQSVSYMHWYQQKPGQAPRLLIYTTSNRATGIPARFSGSGSGTDFTLTISSLEPEDFAVYYCHQRSTYPLTFGSGTKLEIK
notes: IgG1 format
On to B15, for which, in experiment [1], the “fold tighter binding than anti-CD25 H1L1” value amounted to 5.9 fold. In addition, in experiment [2], the “Fold change in Kd vs. H0L0” value worked out at 1.7 fold, binding was characterised by a dissociation constant (Kd) of 0.15 nM, the koff amounted to 0.00012 s⁻¹ and the on-rate constant (kon) was 800000 M⁻¹ s⁻¹.

B16: anti-CD25 H1.14L1.20 (antibody, IgG1, V domains shown)
VH: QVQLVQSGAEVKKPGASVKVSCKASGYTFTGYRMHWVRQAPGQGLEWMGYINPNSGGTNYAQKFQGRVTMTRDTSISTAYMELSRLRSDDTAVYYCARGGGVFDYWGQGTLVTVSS
VL: EIVLTQSPATLSLSPGERATLSCRASQSVSYLHWYQQKPGQAPRLLIYTTSNRATGIPARFSGSGSGTDFTLTISSLEPEDFAVYYCHQRSTYPLTFGSGTKLEIK
notes: IgG1 format
In the case of B16, the “fold tighter binding than anti-CD25 H1L1” value in experiment [1] was found to be 1.8 fold. In addition, in experiment [2], the “Fold change in Kd vs. H0L0” value is -1.9 fold, the Kd amounted to 0.49 nM, the koff is 0.00029 s⁻¹ and the kon was 580000 M⁻¹ s⁻¹.
